This test addresses HLA-A2.1 molecules on T2 (TAP-, HLA-A2.1+) cells (human). Briefly: T2 cells, peptide binding by surface HLA-A2.1 (BB7.2) flow cytometry; ratio of concentrations reaching 20% of maximal binding. (In general: In flow cytometry, cells or beads pass a laser one at a time.)

Read-outs that look alike come from different tables or passages of the source.

B1: NA17-A nt38-64 epitopic peptide (peptide)
peptide: VLPDVFIRC
modifications: not checked
With B1, the RA (relative affinity) (ratio to HIV 1 rt.476 reference peptide) came out at 1.52.

B2: p53 65-73 epitopic peptide (peptide)
peptide: RMPEAAPPV
Take B2: for the setting “remark: other sources report otherwise”, the RA (relative affinity) (ratio to HIV 1 rt.476 reference peptide) came out at 0.91.

For the origin of these results see patent US7345026.
